Data from patent US20030077318A1.
Read-outs that look alike come from different tables or passages of the source.

How the values were obtained:
[1] = biological target: T1, soluble H-2K^b (K^bsol), heterodimer of truncated K^b heavy chain and murine β-2 microglobulin, purified empty from Drosophila cells (murine), P01901; assay: competitive RIA against [^125I]VSV-8 on K^bsol, P30 gel filtration, 23° C.
T1 chain 1: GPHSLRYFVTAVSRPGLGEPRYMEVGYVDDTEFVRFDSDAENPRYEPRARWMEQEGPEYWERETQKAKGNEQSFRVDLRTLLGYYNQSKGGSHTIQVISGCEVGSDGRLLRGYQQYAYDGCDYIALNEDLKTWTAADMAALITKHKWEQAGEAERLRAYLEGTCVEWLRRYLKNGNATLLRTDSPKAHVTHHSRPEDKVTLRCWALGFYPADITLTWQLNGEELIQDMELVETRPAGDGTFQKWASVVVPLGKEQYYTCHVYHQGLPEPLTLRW
T1 chain 2: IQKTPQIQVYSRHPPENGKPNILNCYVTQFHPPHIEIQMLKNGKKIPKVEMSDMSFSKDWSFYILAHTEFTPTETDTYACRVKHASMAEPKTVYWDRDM

[2] = biological target: T1, soluble H-2K^b (K^bsol), heterodimer of …
[3] = biological target: T1, soluble H-2K^b (K^bsol), heterodimer of …

**Q.** RGYVYQGLK (modifications not checked) [VSV-9C] was tested. Which Kd [1] did it give?
**A.** 0.0069 µM

**Q.** How did the Kd [1] turn out when DLRGYVYQGL (modifications not checked) [VSV-10N] was run?
**A.** 0.39 µM

**Q.** How did the Kd [1] turn out when RGYVYQGLKS (modifications not checked) [VSV-10C] was run?
**A.** 0.021 µM

**Q.** Which Kd [1] does the source give for LRGYVYQGL (modifications not checked) [VSV-9N] here?
**A.** 0.0073 µM

**Q.** Which results are given for RGYVYQGL (modifications not checked) [[^125I]VSV-8]?
**A.** half-time of association [2]: 5 min; Kd [3]: 0.033 µM

**Q.** For RGYVYQGL (modifications not checked) [VSV-8], which Kd [1] is on record?
**A.** 0.0037 µM
